T1: recombinant GST-fused VEGFR1#1 (codons 800-1000)
T1 chain: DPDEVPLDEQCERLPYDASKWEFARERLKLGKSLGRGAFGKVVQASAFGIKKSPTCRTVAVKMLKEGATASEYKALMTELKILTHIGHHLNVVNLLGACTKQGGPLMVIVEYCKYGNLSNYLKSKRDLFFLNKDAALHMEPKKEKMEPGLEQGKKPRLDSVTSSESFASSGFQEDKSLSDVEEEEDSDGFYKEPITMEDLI

T2: HA-tagged SMYD3 (human, UniProt Q9H7B4 1-428)
T2 construct: also called ZNFN3A1; not shown: HA tag
T2 sequence: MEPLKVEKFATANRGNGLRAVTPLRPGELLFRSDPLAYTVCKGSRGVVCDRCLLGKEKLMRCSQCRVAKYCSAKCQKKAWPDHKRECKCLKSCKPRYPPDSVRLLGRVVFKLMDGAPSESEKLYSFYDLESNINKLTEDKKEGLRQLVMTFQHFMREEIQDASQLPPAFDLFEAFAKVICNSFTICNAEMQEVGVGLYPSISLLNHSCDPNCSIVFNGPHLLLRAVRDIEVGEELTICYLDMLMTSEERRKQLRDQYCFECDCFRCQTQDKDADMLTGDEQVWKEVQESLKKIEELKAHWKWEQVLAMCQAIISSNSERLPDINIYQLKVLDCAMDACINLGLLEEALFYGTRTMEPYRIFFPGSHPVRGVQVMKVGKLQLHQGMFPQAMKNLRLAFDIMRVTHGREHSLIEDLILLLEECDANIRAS

T3: HA-tagged VEGFR1 (human, UniProt P17948 800-1338, limits assumed)
T3 construct: also called HA-VEGFR1; cytoplasmic domain of VEGFR1; not shown: HA tag (pCMV-HA vector)
T3 sequence: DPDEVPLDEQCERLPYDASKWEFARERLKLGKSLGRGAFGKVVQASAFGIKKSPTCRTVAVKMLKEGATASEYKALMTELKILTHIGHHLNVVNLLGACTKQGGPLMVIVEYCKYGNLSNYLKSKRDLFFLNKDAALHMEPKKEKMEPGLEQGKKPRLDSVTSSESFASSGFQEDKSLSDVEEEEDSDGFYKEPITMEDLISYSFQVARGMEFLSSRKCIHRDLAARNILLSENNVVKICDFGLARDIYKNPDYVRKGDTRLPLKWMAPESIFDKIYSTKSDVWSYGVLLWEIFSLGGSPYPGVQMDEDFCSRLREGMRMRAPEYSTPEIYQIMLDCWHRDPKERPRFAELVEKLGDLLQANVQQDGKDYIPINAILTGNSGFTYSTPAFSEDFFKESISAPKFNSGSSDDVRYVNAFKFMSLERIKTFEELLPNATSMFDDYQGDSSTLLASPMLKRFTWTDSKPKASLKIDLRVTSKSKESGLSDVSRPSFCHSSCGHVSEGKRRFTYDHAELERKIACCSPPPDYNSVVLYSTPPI


Columns and labels:
[1] = biological target: T1, recombinant GST-fused VEGFR1#1 (codons …)
[2] = biological target: T2, HA-tagged SMYD3; test: co-immunoprecipitation (IP anti-HA, immunoblot anti-Flag), HEK293 cells
Method: Extraction of protein, IP, and Western blot analysis were performed according to methods described in the literature (Hamamoto R et al., S Nature cell biology 2004, 6(8): 731-40). Immunoblot analysis was carried out with anti-SMYD3 (Abcam, Cambridge, Mass.), anti-HA (Sigma, St Louis, Mo.), anti-Flag (Sigma), anti-GST (B D Pharmingen, San Diego, Calif.), anti-beta-actin (Sigma), or anti-phospho-Tyrosine (PY20; Sigma) antibodies. HRP-conjugated second antibody was used for the ECL Detection System (Amersham Biosciences, Piscataway, N.J.). Recombinant histone H3 and VEGFR1 (3108) were purchased from Upstate Biotechnology (Lake Placid, N.Y.) and Calbiochem (San Diego, Calif.), respectively.
Since VEGFR1 was methylated by SMYD3, the inventors investigated whether SMYD3 interacts with VEGFR1. The present inventors expressed Flag-tagged cytoplasmic regions of VEGFR1 together with HA-tagged SMYD3 in HEK293 cells. Immunoprecipitation with anti-HA antibody, and subsequent immunoblot analysis with anti-Flag antibody disclosed that SMYD3 associates with VEGFR1#1 (codons 800-1000) but not VEGFR1#2 or VEGFR1#3 (FIG. 3a). Consistently, IP with anti-Flag antibody and subsequent immunoblot analysis with anti-HA antibody corroborated the interaction between SMYD3 and VEGFR1#1 (FIG. 3a). […]

[3] = biological target: T3, HA-tagged VEGFR1; test: co-immunoprecipitation (anti-HA or anti-Flag IP, western blot), HEK293 cells
Description: FIG. 3 depicts the interaction between SMYD3 and VEGFR1. Part a depicts the interaction between SMYD3 and VEGFR1, examined by a co-immunoprecipitation assay using extract from HEK293 cells expressing HA-tagged SMYD3 and different regions of Flag-tagged VEGFR1 (VEGFR1#1, #2, and #3). Part b depicts the interaction of endogenous SMYD3 with VEGFR1. Whole cell extracts from SNU423, SW480, and MCF7 cells expressing both SMYD3 and VEGFR1 were precipitated with anti-SMYD3 antibody. The precipitants were immunoblotted with anti-VEGFR-1 antibody (upper panel) or anti-SMYD3 antibody (lower panel). Part c depicts the association of VEGFR1 with the SET domain of SMYD3. Wild type or deleted forms of Flag-tagged SMYD3 (N-20, delta 2, or delta 3) were co-expressed with HA-tagged VEGFR1 in HEK293 cells. IP was performed with either anti-HA or anti-Flag antibody, and the precipitants were analyzed by western blot analysis with anti-Flag (upper panel) or anti-HA (lower panel) antibody. Part d depicts the interaction of the cytoplasmic region of VEGFR1 with the SET domain of SMYD3 in vivo. Flag-tagged wild type or the SET domain of SMYD3 was co-expressed with HA-tagged VEGFR1 in HEK293 cells. Extracts from the cells were precipitated with anti-Flag (upper panel) or anti-HA (lower panel) antibodies, and the precipitants were analyzed by western blot analysis with anti-HA antibody. […]

binding result [2]	Binder	further results
–	Flag-tagged wild-type SMYD3 (p3XFLAG-CMV-SMYD3) (protein) MEPLKVEKFATANRGNGLRAVTPLRPGELLFRSDPLAYTVCKGSRGVVCDRCLLGKEKLMRCSQCRVAKYCSAKCQKKAWPDHKRECKCLKSCKPRYPPDSVRLLGRVVFKLMDGAPSESEKLYSFYDLESNINKLTEDKKEGLRQLVMTFQHFMREEIQDASQLPPAFDLFEAFAKVICNSFTICNAEMQEVGVGLYPSISLLNHSCDPNCSIVFNGPHLLLRAVRDIEVGEELTICYLDMLMTSEERRKQLRDQYCFECDCFRCQTQDKDADMLTGDEQVWKEVQESLKKIEELKAHWKWEQVLAMCQAIISSNSERLPDINIYQLKVLDCAMDACINLGLLEEALFYGTRTMEPYRIFFPGSHPVRGVQVMKVGKLQLHQGMFPQAMKNLRLAFDIMRVTHGREHSLIEDLILLLEECDANIRAS	in vitro MTase assay, methylation compared to recombinant histone H3 [1]: Approximately three-fold higher methylation of VEGFR1#1 was detected as compared to recombinant histone H3 in vitro (data not shown)
no binding	Flag-tagged VEGFR1#2 (codons 1000-1200) (receptor, Cytoplasmic fragment of VEGFR1 expressed in HEK293 cells; also called flag-VEGFR1#2; not shown: Flag tag (3xFlag vector)) ISYSFQVARGMEFLSSRKCIHRDLAARNILLSENNVVKICDFGLARDIYKNPDYVRKGDTRLPLKWMAPESIFDKIYSTKSDVWSYGVLLWEIFSLGGSPYPGVQMDEDFCSRLREGMRMRAPEYSTPEIYQIMLDCWHRDPKERPRFAELVEKLGDLLQANVQQDGKDYIPINAILTGNSGFTYSTPAFSEDFFKESISA	–
no binding	Flag-tagged VEGFR1#3 (codons 1200-1338) (receptor, Cytoplasmic fragment of VEGFR1 expressed in HEK293 cells; also called flag-VEGFR1#3; not shown: Flag tag (3xFlag vector)) APKFNSGSSDDVRYVNAFKFMSLERIKTFEELLPNATSMFDDYQGDSSTLLASPMLKRFTWTDSKPKASLKIDLRVTSKSKESGLSDVSRPSFCHSSCGHVSEGKRRFTYDHAELERKIACCSPPPDYNSVVLYSTPPI	–
–	Flag-tagged SMYD3-delta 3 (codons 250-428) (enzyme, Deleted form of SMYD3 lacking the SET domain; also called flag-SMYD3-D3; not shown: Flag tag) RKQLRDQYCFECDCFRCQTQDKDADMLTGDEQVWKEVQESLKKIEELKAHWKWEQVLAMCQAIISSNSERLPDINIYQLKVLDCAMDACINLGLLEEALFYGTRTMEPYRIFFPGSHPVRGVQVMKVGKLQLHQGMFPQAMKNLRLAFDIMRVTHGREHSLIEDLILLLEECDANIRAS	binding result [3]: no binding

From patent US20100184088A1 (ONCOTHERAPY SCIENCE, published 2010)
